# Results published in article PMC4434323.
# Assays:
# [1] = target: T1, unc-120 (D1081.2) (Caenorhabditis elegans) (UniProt Q18955)
# T1 sequence: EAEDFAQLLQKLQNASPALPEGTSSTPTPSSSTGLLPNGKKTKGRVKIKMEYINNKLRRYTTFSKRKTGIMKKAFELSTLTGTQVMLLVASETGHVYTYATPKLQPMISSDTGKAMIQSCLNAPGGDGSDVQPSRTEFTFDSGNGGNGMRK
# [2] = target: T2, T07C12.11 (T07C12.11) (Caenorhabditis elegans) (UniProt G5EGG9)
# T2 sequence: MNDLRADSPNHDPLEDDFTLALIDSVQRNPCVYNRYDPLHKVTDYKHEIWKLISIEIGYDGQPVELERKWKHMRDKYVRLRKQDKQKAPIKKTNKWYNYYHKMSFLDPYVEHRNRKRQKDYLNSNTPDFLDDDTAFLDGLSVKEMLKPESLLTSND
# [3] = target: T3, C07E3.6 (C07E3.6) (Caenorhabditis elegans) (UniProt Q17792)
# T3 sequence: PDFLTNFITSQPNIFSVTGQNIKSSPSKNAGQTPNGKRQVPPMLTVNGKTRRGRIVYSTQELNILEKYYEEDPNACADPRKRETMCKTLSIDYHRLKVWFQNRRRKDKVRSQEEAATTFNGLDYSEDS
# [4] = target: T4, ceh-23 (ZK652.5) (Caenorhabditis elegans) (UniProt P34663)
# T4 sequence: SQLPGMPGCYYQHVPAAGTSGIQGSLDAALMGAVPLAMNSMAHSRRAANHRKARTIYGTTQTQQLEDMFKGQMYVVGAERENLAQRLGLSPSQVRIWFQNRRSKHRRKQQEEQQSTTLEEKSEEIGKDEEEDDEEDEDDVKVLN
# [5] = target: T5, ceh-18 (ZC64.3) (Caenorhabditis elegans) (UniProt P41934)
# T5 sequence: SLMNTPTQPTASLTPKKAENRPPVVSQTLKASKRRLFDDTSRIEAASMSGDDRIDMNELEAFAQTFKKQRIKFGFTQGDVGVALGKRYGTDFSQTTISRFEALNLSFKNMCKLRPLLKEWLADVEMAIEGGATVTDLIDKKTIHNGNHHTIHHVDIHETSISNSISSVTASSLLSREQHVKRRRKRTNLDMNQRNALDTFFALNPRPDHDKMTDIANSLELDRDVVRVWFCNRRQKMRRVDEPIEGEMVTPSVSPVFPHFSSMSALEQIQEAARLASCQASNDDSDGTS
# [6] = target: T6, nhr-42 (C33G8.6) (Caenorhabditis elegans) (UniProt O76828)
# T6 sequence: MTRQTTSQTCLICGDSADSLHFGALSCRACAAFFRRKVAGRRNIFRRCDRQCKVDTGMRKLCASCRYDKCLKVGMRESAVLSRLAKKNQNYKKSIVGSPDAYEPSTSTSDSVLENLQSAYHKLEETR
# [7] = target: T7, eyg-1 (Y53C12C.1) (Caenorhabditis elegans) (UniProt O01996)
# T7 sequence: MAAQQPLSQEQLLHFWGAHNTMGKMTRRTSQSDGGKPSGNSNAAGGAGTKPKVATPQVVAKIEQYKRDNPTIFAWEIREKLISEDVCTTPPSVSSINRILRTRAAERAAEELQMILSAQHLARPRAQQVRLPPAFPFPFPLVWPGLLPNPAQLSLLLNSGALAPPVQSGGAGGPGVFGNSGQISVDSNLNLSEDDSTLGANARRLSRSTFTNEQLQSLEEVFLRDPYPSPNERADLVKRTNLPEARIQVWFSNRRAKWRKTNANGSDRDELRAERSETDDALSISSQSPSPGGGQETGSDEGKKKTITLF
# [8] = target: T8, ceh-51 (Y80D3A.3) (Caenorhabditis elegans) (UniProt Q9U1R1)
# T8 sequence: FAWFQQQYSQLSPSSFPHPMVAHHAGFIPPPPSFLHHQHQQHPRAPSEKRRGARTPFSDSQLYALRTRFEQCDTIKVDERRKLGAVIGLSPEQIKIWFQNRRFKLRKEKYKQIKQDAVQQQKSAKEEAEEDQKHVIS
# [9] = target: T9, atf-6 (F45E6.2) (Caenorhabditis elegans) (UniProt Q20435)
# T9 sequence: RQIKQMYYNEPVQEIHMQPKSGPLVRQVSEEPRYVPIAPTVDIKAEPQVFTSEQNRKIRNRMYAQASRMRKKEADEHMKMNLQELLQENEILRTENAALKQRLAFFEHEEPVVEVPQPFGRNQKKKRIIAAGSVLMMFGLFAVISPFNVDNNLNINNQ
sequence,measurement,setting,value
AAATAAGG (double strand) [8-mer AAATAAGG],binding signal (PBM E-score (-0.5 to 0.5)),[1],0.464
CTTACGCA (double strand) [8-mer CTTACGCA],binding signal (PBM E-score (-0.5 to 0.5)),[2],0.487
TATAAGGA (double strand) [8-mer TATAAGGA],binding signal (PBM E-score (-0.5 to 0.5)),[1],0.472
GGTAATTA (double strand) [8-mer GGTAATTA],binding signal (PBM E-score (-0.5 to 0.5)),[3],0.497
same,binding signal (PBM E-score (-0.5 to 0.5)),[4],0.494
AATTATGC (double strand) [8-mer AATTATGC],binding signal (PBM E-score (-0.5 to 0.5)),[5],0.484
GACTACGA (double strand) [8-mer GACTACGA],binding signal (PBM E-score (-0.5 to 0.5)),[6],0.487
TTATGCAA (double strand) [8-mer TTATGCAA],binding signal (PBM E-score (-0.5 to 0.5)),[5],0.476
ATATGCAC (double strand) [8-mer ATATGCAC],binding signal (PBM E-score (-0.5 to 0.5)),[5],0.477
AATATGCA (double strand) [8-mer AATATGCA],binding signal (PBM E-score (-0.5 to 0.5)),[5],0.482
TACCATAA (double strand) [8-mer TACCATAA],binding signal (PBM E-score (-0.5 to 0.5)),[1],0.462
CTTGCGCA (double strand) [8-mer CTTGCGCA],binding signal (PBM E-score (-0.5 to 0.5)),[2],0.489
ACCTTATA (double strand) [8-mer ACCTTATA],binding signal (PBM E-score (-0.5 to 0.5)),[1],0.466
CACTACGA (double strand) [8-mer CACTACGA],binding signal (PBM E-score (-0.5 to 0.5)),[6],0.485
GAATATTC (double strand) [8-mer GAATATTC],binding signal (PBM E-score (-0.5 to 0.5)),[5],0.494
ACTAATTA (double strand) [8-mer ACTAATTA],binding signal (PBM E-score (-0.5 to 0.5)),[3],0.498
same,binding signal (PBM E-score (-0.5 to 0.5)),[4],0.495
same,binding signal (PBM E-score (-0.5 to 0.5)),[7],0.477
TATGCAAA (double strand) [8-mer TATGCAAA],binding signal (PBM E-score (-0.5 to 0.5)),[5],0.486
ACGTAAGC (double strand) [8-mer ACGTAAGC],binding signal (PBM E-score (-0.5 to 0.5)),[2],0.487
CTTGCGTA (double strand) [8-mer CTTGCGTA],binding signal (PBM E-score (-0.5 to 0.5)),[2],0.487
ACGTAAGA (double strand) [8-mer ACGTAAGA],binding signal (PBM E-score (-0.5 to 0.5)),[2],0.486
ATATATGG (double strand) [8-mer ATATATGG],binding signal (PBM E-score (-0.5 to 0.5)),[1],0.486
TTAATTAA (double strand) [8-mer TTAATTAA],binding signal (PBM E-score (-0.5 to 0.5)),[3],0.496
same,binding signal (PBM E-score (-0.5 to 0.5)),[4],0.497
same,binding signal (PBM E-score (-0.5 to 0.5)),[7],0.487
ATAATTAA (double strand) [8-mer ATAATTAA],binding signal (PBM E-score (-0.5 to 0.5)),[4],0.493
CATATAAG (double strand) [8-mer CATATAAG],binding signal (PBM E-score (-0.5 to 0.5)),[1],0.466
AACGTAAG (double strand) [8-mer AACGTAAG],binding signal (PBM E-score (-0.5 to 0.5)),[2],0.486
ACGTAAGG (double strand) [8-mer ACGTAAGG],binding signal (PBM E-score (-0.5 to 0.5)),[2],0.488
ATATGCAT (double strand) [8-mer ATATGCAT],binding signal (PBM E-score (-0.5 to 0.5)),[5],0.486
CCATAAAA (double strand) [8-mer CCATAAAA],binding signal (PBM E-score (-0.5 to 0.5)),[1],0.459
TGCATAAA (double strand) [8-mer TGCATAAA],binding signal (PBM E-score (-0.5 to 0.5)),[5],0.476
ATGCGCAT (double strand) [8-mer ATGCGCAT],binding signal (PBM E-score (-0.5 to 0.5)),[7],0.475
ATGAATAA (double strand) [8-mer ATGAATAA],binding signal (PBM E-score (-0.5 to 0.5)),[5],0.477
GCCTTATA (double strand) [8-mer GCCTTATA],binding signal (PBM E-score (-0.5 to 0.5)),[1],0.47
ATACGTAA (double strand) [8-mer ATACGTAA],binding signal (PBM E-score (-0.5 to 0.5)),[2],0.491
CCTTATAA (double strand) [8-mer CCTTATAA],binding signal (PBM E-score (-0.5 to 0.5)),[1],0.474
TACGTAAA (double strand) [8-mer TACGTAAA],binding signal (PBM E-score (-0.5 to 0.5)),[2],0.488
ATTAATTA (double strand) [8-mer ATTAATTA],binding signal (PBM E-score (-0.5 to 0.5)),[3],0.495
same,binding signal (PBM E-score (-0.5 to 0.5)),[4],0.495
same,binding signal (PBM E-score (-0.5 to 0.5)),[8],0.474
TAATTAAA (double strand) [8-mer TAATTAAA],binding signal (PBM E-score (-0.5 to 0.5)),[4],0.493
CAATTAAC (double strand) [8-mer CAATTAAC],binding signal (PBM E-score (-0.5 to 0.5)),[3],0.495
same,binding signal (PBM E-score (-0.5 to 0.5)),[7],0.476
CCTAATTA (double strand) [8-mer CCTAATTA],binding signal (PBM E-score (-0.5 to 0.5)),[3],0.496
same,binding signal (PBM E-score (-0.5 to 0.5)),[4],0.495
GTAATTAA (double strand) [8-mer GTAATTAA],binding signal (PBM E-score (-0.5 to 0.5)),[3],0.497
same,binding signal (PBM E-score (-0.5 to 0.5)),[4],0.492
ATGCATAA (double strand) [8-mer ATGCATAA],binding signal (PBM E-score (-0.5 to 0.5)),[5],0.495
CATATATG (double strand) [8-mer CATATATG],binding signal (PBM E-score (-0.5 to 0.5)),[1],0.468
CATAATTA (double strand) [8-mer CATAATTA],binding signal (PBM E-score (-0.5 to 0.5)),[3],0.495
same,binding signal (PBM E-score (-0.5 to 0.5)),[5],0.483
same,binding signal (PBM E-score (-0.5 to 0.5)),[4],0.493
GTAATTAC (double strand) [8-mer GTAATTAC],binding signal (PBM E-score (-0.5 to 0.5)),[8],0.478
same,binding signal (PBM E-score (-0.5 to 0.5)),[7],0.482
CATATGCA (double strand) [8-mer CATATGCA],binding signal (PBM E-score (-0.5 to 0.5)),[5],0.478
ATTATGCA (double strand) [8-mer ATTATGCA],binding signal (PBM E-score (-0.5 to 0.5)),[5],0.496
CTTAATTA (double strand) [8-mer CTTAATTA],binding signal (PBM E-score (-0.5 to 0.5)),[3],0.497
same,binding signal (PBM E-score (-0.5 to 0.5)),[4],0.494
same,binding signal (PBM E-score (-0.5 to 0.5)),[7],0.482
ATCAATTA (double strand) [8-mer ATCAATTA],binding signal (PBM E-score (-0.5 to 0.5)),[7],0.475
ATTAATTG (double strand) [8-mer ATTAATTG],binding signal (PBM E-score (-0.5 to 0.5)),[8],0.472
same,binding signal (PBM E-score (-0.5 to 0.5)),[7],0.478
TCAATTAA (double strand) [8-mer TCAATTAA],binding signal (PBM E-score (-0.5 to 0.5)),[8],0.467
same,binding signal (PBM E-score (-0.5 to 0.5)),[7],0.48
GATAATTA (double strand) [8-mer GATAATTA],binding signal (PBM E-score (-0.5 to 0.5)),[3],0.497
same,binding signal (PBM E-score (-0.5 to 0.5)),[4],0.492
same,binding signal (PBM E-score (-0.5 to 0.5)),[7],0.48
CCAATTAA (double strand) [8-mer CCAATTAA],binding signal (PBM E-score (-0.5 to 0.5)),[7],0.479
ATATAAGG (double strand) [8-mer ATATAAGG],binding signal (PBM E-score (-0.5 to 0.5)),[1],0.478
GTTAATTA (double strand) [8-mer GTTAATTA],binding signal (PBM E-score (-0.5 to 0.5)),[3],0.498
same,binding signal (PBM E-score (-0.5 to 0.5)),[4],0.497
same,binding signal (PBM E-score (-0.5 to 0.5)),[7],0.481
CTAATTAG (double strand) [8-mer CTAATTAG],binding signal (PBM E-score (-0.5 to 0.5)),[3],0.497
same,binding signal (PBM E-score (-0.5 to 0.5)),[4],0.495
same,binding signal (PBM E-score (-0.5 to 0.5)),[7],0.473
GTTACGTA (double strand) [8-mer GTTACGTA],binding signal (PBM E-score (-0.5 to 0.5)),[2],0.49
AATATTCA (double strand) [8-mer AATATTCA],binding signal (PBM E-score (-0.5 to 0.5)),[5],0.477
CTAATTAA (double strand) [8-mer CTAATTAA],binding signal (PBM E-score (-0.5 to 0.5)),[3],0.498
same,binding signal (PBM E-score (-0.5 to 0.5)),[4],0.498
same,binding signal (PBM E-score (-0.5 to 0.5)),[7],0.489
TATGCATA (double strand) [8-mer TATGCATA],binding signal (PBM E-score (-0.5 to 0.5)),[5],0.497
CCATATAA (double strand) [8-mer CCATATAA],binding signal (PBM E-score (-0.5 to 0.5)),[1],0.465
TATATGGA (double strand) [8-mer TATATGGA],binding signal (PBM E-score (-0.5 to 0.5)),[1],0.478
AAATATGG (double strand) [8-mer AAATATGG],binding signal (PBM E-score (-0.5 to 0.5)),[1],0.474
CTTACGTA (double strand) [8-mer CTTACGTA],binding signal (PBM E-score (-0.5 to 0.5)),[2],0.495
same,binding signal (PBM E-score (-0.5 to 0.5)),[9],0.456
